Measured values as given in the RNAGym collection of RNA variant scans (doi:10.1021/acssynbio.7b00057).

B1: Pistol ribozyme (parent)
chain: GGGUCGUUGUUCCAUAAUCGCGUGGAUAUGGCACGCAAGUUUCUACCGGGCACCGUAAAUGUCCGACUGGAGCCGUUCGGGCGGCUAUAAACAGACCUCAGGCCCGAAGCGUGGCGGCACCUGCCGCCGGUGGUAAAAAAGAUCGGAAGAGCACACGUCU

Variants of: B1
Assay: aptazyme ON/OFF ratio, guanine; higher = stronger switching; co-transcriptional cleavage with and without guanine

**Q.** With GGGUCGAUGUGUCAUAAUCGCGUGGAUAUGGCACGCAAGUUUCUACCGGGCACCGUAAAUGUCCGACUGGAGCCGUUCGGGCGGCUAUAAACAGACCUCAGGCCCGAAGCGUGGCGGCACCUGCCGCCGGUGGUAAAAAAGAUCGGAAGAGCACACGUCU [U7A U11G C12U] as the variant, how does the “aptazyme ON/OFF ratio” value read?
**A.** 1.22

**Q.** For GGGUCGAUGUGGCAUAAUCGCGUGGAUAUGGCACGCAAGUUUCUACCGGGCACCGUAAAUGUCCGACUGGAGCCGUUCGGGCGGCUAUAAACAGACCUCAGGCCCGAAGCGUGGCGGCACCUGCCGCCGGUGGUAAAAAAGAUCGGAAGAGCACACGUCU [U7A U11G C12G], which “aptazyme ON/OFF ratio” value is on record?
**A.** 1.27

**Q.** With GGGUCGAUGUGACAUAAUCGCGUGGAUAUGGCACGCAAGUUUCUACCGGGCACCGUAAAUGUCCGACUGGAGCCGUUCGGGCGGCUAUAAACAGACCUCAGGCCCGAAGCGUGGCGGCACCUGCCGCCGGUGGUAAAAAAGAUCGGAAGAGCACACGUCU [U7A U11G C12A] as the variant, how does the “aptazyme ON/OFF ratio” value read?
**A.** 1.16

**Q.** Which “aptazyme ON/OFF ratio” value does the source give for GGGUCGAUGUCCGAUAAUCGCGUGGAUAUGGCACGCAAGUUUCUACCGGGCACCGUAAAUGUCCGACUGGAGCCGUUCGGGCGGCUAUAAACAGACCUCAGGCCCGAAGCGUGGCGGCACCUGCCGCCGGUGGUAAAAAAGAUCGGAAGAGCACACGUCU [U7A U11C C13G] here?
**A.** 1.07

**Q.** Which “aptazyme ON/OFF ratio” value does the source give for GGGUCGAUGUCCUAUAAUCGCGUGGAUAUGGCACGCAAGUUUCUACCGGGCACCGUAAAUGUCCGACUGGAGCCGUUCGGGCGGCUAUAAACAGACCUCAGGCCCGAAGCGUGGCGGCACCUGCCGCCGGUGGUAAAAAAGAUCGGAAGAGCACACGUCU [U7A U11C C13U] here?
**A.** 1.21

**Q.** For GGGUCGAUGUGCGAUAAUCGCGUGGAUAUGGCACGCAAGUUUCUACCGGGCACCGUAAAUGUCCGACUGGAGCCGUUCGGGCGGCUAUAAACAGACCUCAGGCCCGAAGCGUGGCGGCACCUGCCGCCGGUGGUAAAAAAGAUCGGAAGAGCACACGUCU [U7A U11G C13G], which “aptazyme ON/OFF ratio” value is on record?
**A.** 1.05

**Q.** For GGGUCGAUGUGCAAUAAUCGCGUGGAUAUGGCACGCAAGUUUCUACCGGGCACCGUAAAUGUCCGACUGGAGCCGUUCGGGCGGCUAUAAACAGACCUCAGGCCCGAAGCGUGGCGGCACCUGCCGCCGGUGGUAAAAAAGAUCGGAAGAGCACACGUCU [U7A U11G C13A], which “aptazyme ON/OFF ratio” value is on record?
**A.** 1.03

**Q.** Which “aptazyme ON/OFF ratio” value does the source give for GGGUCGAUGUGCUAUAAUCGCGUGGAUAUGGCACGCAAGUUUCUACCGGGCACCGUAAAUGUCCGACUGGAGCCGUUCGGGCGGCUAUAAACAGACCUCAGGCCCGAAGCGUGGCGGCACCUGCCGCCGGUGGUAAAAAAGAUCGGAAGAGCACACGUCU [U7A U11G C13U] here?
**A.** 1.04

**Q.** With GGGUCGAUGUGCCAUAAUCGCGUGGAUAUGGCACGCAAGUUUCUACCGGGCACCGUAAAUGUCCGACUGGAGCCGUUCGGGCGGCUAUAAACAGACCUCAGGCCCGAAGCGUGGCGGCACCUGCCGCCGGUGGUAAAAAAGAUCGGAAGAGCACACGUCU [U7A U11G] as the variant, how does the “aptazyme ON/OFF ratio” value read?
**A.** 1.17

**Q.** With GGGUCGAUGUGAUAUAAUCGCGUGGAUAUGGCACGCAAGUUUCUACCGGGCACCGUAAAUGUCCGACUGGAGCCGUUCGGGCGGCUAUAAACAGACCUCAGGCCCGAAGCGUGGCGGCACCUGCCGCCGGUGGUAAAAAAGAUCGGAAGAGCACACGUCU [U7A U11G C12A C13U] as the variant, how does the “aptazyme ON/OFF ratio” value read?
**A.** 1.25

**Q.** Which “aptazyme ON/OFF ratio” value does the source give for GGGUCGAUGUGAGAUAAUCGCGUGGAUAUGGCACGCAAGUUUCUACCGGGCACCGUAAAUGUCCGACUGGAGCCGUUCGGGCGGCUAUAAACAGACCUCAGGCCCGAAGCGUGGCGGCACCUGCCGCCGGUGGUAAAAAAGAUCGGAAGAGCACACGUCU [U7A U11G C12A C13G] here?
**A.** 1.25

**Q.** With GGGUCGAUGUGAAAUAAUCGCGUGGAUAUGGCACGCAAGUUUCUACCGGGCACCGUAAAUGUCCGACUGGAGCCGUUCGGGCGGCUAUAAACAGACCUCAGGCCCGAAGCGUGGCGGCACCUGCCGCCGGUGGUAAAAAAGAUCGGAAGAGCACACGUCU [U7A U11G C12A C13A] as the variant, how does the “aptazyme ON/OFF ratio” value read?
**A.** 1.15

**Q.** Which “aptazyme ON/OFF ratio” value does the source give for GGGUCGAUGUGUAAUAAUCGCGUGGAUAUGGCACGCAAGUUUCUACCGGGCACCGUAAAUGUCCGACUGGAGCCGUUCGGGCGGCUAUAAACAGACCUCAGGCCCGAAGCGUGGCGGCACCUGCCGCCGGUGGUAAAAAAGAUCGGAAGAGCACACGUCU [U7A U11G C12U C13A] here?
**A.** 1.15

**Q.** With GGGUCGAUGUGUGAUAAUCGCGUGGAUAUGGCACGCAAGUUUCUACCGGGCACCGUAAAUGUCCGACUGGAGCCGUUCGGGCGGCUAUAAACAGACCUCAGGCCCGAAGCGUGGCGGCACCUGCCGCCGGUGGUAAAAAAGAUCGGAAGAGCACACGUCU [U7A U11G C12U C13G] as the variant, how does the “aptazyme ON/OFF ratio” value read?
**A.** 1.06

**Q.** Which “aptazyme ON/OFF ratio” value does the source give for GGGUCGAUGUGUUAUAAUCGCGUGGAUAUGGCACGCAAGUUUCUACCGGGCACCGUAAAUGUCCGACUGGAGCCGUUCGGGCGGCUAUAAACAGACCUCAGGCCCGAAGCGUGGCGGCACCUGCCGCCGGUGGUAAAAAAGAUCGGAAGAGCACACGUCU [U7A U11G C12U C13U] here?
**A.** 1.13

**Q.** For GGGUCGAUGUGGUAUAAUCGCGUGGAUAUGGCACGCAAGUUUCUACCGGGCACCGUAAAUGUCCGACUGGAGCCGUUCGGGCGGCUAUAAACAGACCUCAGGCCCGAAGCGUGGCGGCACCUGCCGCCGGUGGUAAAAAAGAUCGGAAGAGCACACGUCU [U7A U11G C12G C13U], which “aptazyme ON/OFF ratio” value is on record?
**A.** 1.23

**Q.** For GGGUCGAUGUGGAAUAAUCGCGUGGAUAUGGCACGCAAGUUUCUACCGGGCACCGUAAAUGUCCGACUGGAGCCGUUCGGGCGGCUAUAAACAGACCUCAGGCCCGAAGCGUGGCGGCACCUGCCGCCGGUGGUAAAAAAGAUCGGAAGAGCACACGUCU [U7A U11G C12G C13A], which “aptazyme ON/OFF ratio” value is on record?
**A.** 1.13

**Q.** With GGGUCGAUGUGGGAUAAUCGCGUGGAUAUGGCACGCAAGUUUCUACCGGGCACCGUAAAUGUCCGACUGGAGCCGUUCGGGCGGCUAUAAACAGACCUCAGGCCCGAAGCGUGGCGGCACCUGCCGCCGGUGGUAAAAAAGAUCGGAAGAGCACACGUCU [U7A U11G C12G C13G] as the variant, how does the “aptazyme ON/OFF ratio” value read?
**A.** 1.42
